Laboratory results reported in patent publication US20230242673A1.

Biological target: LDLR expressed in HepG2 cells (UniProt P01130)
Test: cell-based or functional assay

LDLR expressed in HepG2 cells, sequence (P01130 22-860 limits assumed): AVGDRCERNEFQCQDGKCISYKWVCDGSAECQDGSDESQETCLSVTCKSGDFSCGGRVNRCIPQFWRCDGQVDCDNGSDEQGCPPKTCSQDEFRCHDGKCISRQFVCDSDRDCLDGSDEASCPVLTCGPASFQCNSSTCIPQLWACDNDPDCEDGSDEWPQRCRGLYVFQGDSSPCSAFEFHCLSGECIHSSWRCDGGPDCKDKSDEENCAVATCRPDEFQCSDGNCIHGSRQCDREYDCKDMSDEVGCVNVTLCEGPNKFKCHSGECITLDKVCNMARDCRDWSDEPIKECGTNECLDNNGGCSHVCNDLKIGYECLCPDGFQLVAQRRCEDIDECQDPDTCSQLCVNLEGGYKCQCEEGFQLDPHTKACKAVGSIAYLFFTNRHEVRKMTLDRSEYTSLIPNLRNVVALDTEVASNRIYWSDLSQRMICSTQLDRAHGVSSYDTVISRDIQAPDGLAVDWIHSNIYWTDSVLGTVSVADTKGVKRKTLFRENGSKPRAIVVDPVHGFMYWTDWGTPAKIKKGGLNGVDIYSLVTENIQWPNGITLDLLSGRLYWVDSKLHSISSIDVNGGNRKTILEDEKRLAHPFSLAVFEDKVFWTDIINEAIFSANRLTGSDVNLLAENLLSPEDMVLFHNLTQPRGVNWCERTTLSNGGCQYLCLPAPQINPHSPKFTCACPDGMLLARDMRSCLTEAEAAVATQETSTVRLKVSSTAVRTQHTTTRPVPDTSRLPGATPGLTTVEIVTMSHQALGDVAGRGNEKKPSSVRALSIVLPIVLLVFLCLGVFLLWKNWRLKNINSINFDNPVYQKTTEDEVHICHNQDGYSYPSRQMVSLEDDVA

LDL uptake by HepG2 cells, fluorescence value of LDL BODIPY (485 Ex/535 Em): 80
Substance: PCSK9 Ag (human PCSK9 protein, Acro Cat No: PC9-H5223) (from UniProt Q8NBP7 31-692)
